Assays:
[1] = target: H1 HA from A/Brisbane/59/2007 H1N1, recombinant (IRR FR-65) (Influenza A virus A/Brisbane/59/2007 …, UniProt D5F1Q8, strain); assay: ELISA
[2] = target: H1 HA from A/Solomon Islands/3/2006 H1N1, recombinant (IRR FR-67) (Influenza A virus A/Solomon …, UniProt A7Y8I1, strain); assay: ELISA
[3] = target: H1 HA from A/Norway/3206-3/2009 H1N1, recombinant (IRR FR-697) (Influenza A virus A/Norway/3206-3/2009 …, UniProt C3W5S1, strain); assay: ELISA
[4] = target: H1 HA from A/California/04/2009 H1N1pdm09, recombinant (Immune Technology) (Influenza A virus A/California/04/2009 …, UniProt C3W5S1, strain); assay: ELISA
[5] = target: T1, H1 HA from A/Michigan/45/2015 H1N1, recombinant (Immune Technology) (Influenza A virus A/Michigan/45/2015 …, UniProt A0A1J0CXU0, strain); assay: ELISA
[6] = target: T1, H1 HA from A/Michigan/45/2015 H1N1, …; assay: BLI

Measured: binding result

B1: 05.GC.w13.02 (antibody, V domains shown)
VH: QVQLVQSGTEVKKPGSSVKVSCKASGVTFSSYAMSWVRQAPGQGLEWMGGFIPILGTANYAQKFQGRLTITADGLTGTVYMELSRLRSEDTAVYYCAREVTWKGASIGVLGIWGQGTMVSVSA
VL: DIQMTQSPSSLSASVGDRVIITCRANQSIGGYLNWYQQKPGKAPNLLIFTASTLQSGVPSRFSGGGSGTDFTLTISSLQPEDFATYYCQQNYNTPRTFGQGTKVDIK
binds: [1] | [2] | [3] | [4] | [5]

B2: 05.GC.w13.02 Fab, His6 tag removed with thrombin (Fab, V domains shown)
VH: QVQLVQSGTEVKKPGSSVKVSCKASGVTFSSYAMSWVRQAPGQGLEWMGGFIPILGTANYAQKFQGRLTITADGLTGTVYMELSRLRSEDTAVYYCAREVTWKGASIGVLGIWGQGTMVSVSA
VL: DIQMTQSPSSLSASVGDRVIITCRANQSIGGYLNWYQQKPGKAPNLLIFTASTLQSGVPSRFSGGGSGTDFTLTISSLQPEDFATYYCQQNYNTPRTFGQGTKVDIK
binds: [6]

B3: 05.GC.w13.01 (antibody, V domains shown)
VH: QVQLVQSGAEVKKPGSSVKVSCEASGVTFSSYAVSWVRQAPGQGLEWMGGIIPIVGTANYAQKFQGRVTITADGLTSTVYMELSRLRSEDTAVYFCAREATWKGSSIGVLGIWGQGTMVTVSA
VL: DIQMTQSPSSLSASVGDRVTITCRASQSISDYLNWYQQKPGKAPSLLIFSASTLQSGVPSRFSGSGSGTDFTLTISSLQPEDFATYYCQQNYNTPRTFGQGTKVEIK
binds: [1] | [2] | [3] | [4] | [5]

B4: 05.GC.w2.3C10 (antibody, V domains shown)
VH: EVQLVQSGAEVKKPGSSVRVSCKASGGTFSAISWVRQAPGQGLEWMGGIIPVFGTANYAQKFQGRVTITADDSTSTAYMEVSSLRSDDTAVYYCAREETWKGATIGVMGIWGQGTMVTVSS
VL: DIQMTQSPSSLSASVGDRVTITCRASQSISSYLNWYQHKPGKAPKLLIFTASNLQSGVPSRFSGGGSGTDFTLTISSLQPEDFATYYCQQSYTSPRTFGQGTKVEIK
binds: [1] | [2] | [5]

— PMC11211068 (The Journal of Experimental Medicine, 2024)
